# Data from the supplement of paper PMC10724198.
# ± gives the standard deviation of the averaged measurements.
# Tested on: Saccharomyces cerevisiae
# Assay: protein stability index of tFT-peptide fusion (C-terminal peptide) (PSI (0-1 scale)); higher = more stable (slower turnover)
# Settings: genetic background: wild type; temperature: 30 C
# Description: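 Multiplexed protein stability (MPS) profiling in S. cerevisiae. Random 12-aa peptides (tFT-X12 library) are fused to the C-terminus of a sfGFP-mCherry tandem fluorescent timer, after mCherry and a GGGS linker. Cells are FACS-sorted into 8 mCherry/sfGFP bins and deep-sequenced. The protein stability index (PSI) is the read-weighted bin average, scaled from 0 (unstable) to 1 (stable). Only peptides with >10 reads are reported; cells were grown at 30 °C in SC-His with glucose.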
# 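Note: PSI is a weighted mean of sequencing reads over stability bins, variants kept only with over 10 reads, mCherry proximal and sfGFP distal, peptide attached via GGGS linker.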
row,Sequence,protein stability index
1,ASEGRWVSVMGG,0.686 ± 0.05
2,ASFFTARMYIIF,0.676 ± 0.031
3,ASFPPPPAAPPP,0.673 ± 0.093
4,ASGGLVGAWVCV,0.675 ± 0.0091
5,ASGSSVSFQVSF,0.65 ± 0.069
6,ASIFPTLKLTYL,0.713 ± 0.011
7,ASLHAPPLPPLC,0.689 ± 0.02
8,ASLLGSSPPPFI,0.696 ± 0.072
9,ASLTNERCGASR,0.679 ± 0.019
10,ASLVSPSFLGLV,0.677 ± 0.084
11,ASNRVLRILLPR,0.683 ± 0.05
12,ASQPNRIPSPPR,0.71 ± 0.01
13,ASRFSLPLLSLL,0.71 ± 0.14
14,ASRHGALIVLST,0.6701 ± 0.0053
15,ASRPPAPVPLPL,0.686 ± 0.015
16,ASRRSGSYTGYR,0.672 ± 0.035
17,ASSFVGLRWWAG,0.722 ± 0.012
18,ASSPAPPSPTPP,0.7 ± 0.05
19,ASSPPPRISAWL,0.7463 ± 0.0032
20,ASSRPQRKSGKR,0.77 ± 0.0086
21,ASSRQCSVEART,0.695 ± 0.0082
22,ASTFADASSALV,0.71 ± 0.014
23,ASTLPTQPWPKG,0.729 ± 0.11
24,ASVCASCYTGGF,0.665 ± 0.03
25,ATALETWGGAQG,0.691 ± 0.015
26,ATGLPSPALLHT,0.687 ± 0.043

row,Sequence,protein stability index
1,ATLGRCYSSNGL,0.672 ± 0.031
2,ATPPPVRPSPIL,0.677 ± 0.035
3,ATPTSPSRPFLL,0.707 ± 0.086
4,ATTVAIVFCRPA,0.6165 ± 0.0039
5,AVAERGRPPLKE,0.6893 ± 0.0059
6,AVAHLSCTSRFG,0.6944 ± 0.0037
7,AVCCKYFGESLF,0.864 ± 0.0098
8,AVCWDVSRCLGL,0.7 ± 0.019
9,AVCWWGSVGGVG,0.6966 ± 0.0069
10,AVGGWRAAGGGG,0.7114 ± 0.0042
11,AVHASTLCSSIG,0.6659 ± 0.0043
12,AVLGDGCGVVGA,0.691 ± 0.072
13,AVNLWSRFFDLP,0.686 ± 0.052
14,AVRGYGCGGGTG,0.6971 ± 0.0012
15,AVSHGLFALPFL,0.703 ± 0.012
16,AVTRLQPVMRAV,0.6804 ± 0.0054
17,AVVGCGGGWWWA,0.715 ± 0.13
18,AVVVWGGGWWWA,0.78 ± 0.15
19,AVWGWAFASVGG,0.735 ± 0.04
20,AWESVGVWWGDS,0.76 ± 0.043
21,AWGELGSGVFGL,0.681 ± 0.032
22,AWGRWGGGSRVE,0.636 ± 0.02
23,AWGYFTDTRERY,0.687 ± 0.036
24,AWQGRVEGGDGA,0.665 ± 0.024
25,AYCRRPALPWRG,0.714 ± 0.028
26,AYEGVYAVVANV,0.616 ± 0.014

row,Sequence,protein stability index
1,AYICLSGLGRCI,0.672 ± 0.03
2,AYPWWLILSDAI,0.759 ± 0.016
3,AYWWSLGRALGC,0.745 ± 0.065
4,CALWHLLPVNLH,0.645 ± 0.059
5,CAPPSSPCLCSI,0.701 ± 0.064
6,CASLATAPPTSQ,0.728 ± 0.026
7,CAWLCVRFAGVG,0.668 ± 0.062
8,CCGHGVFSFFSL,0.749 ± 0.023
9,CCLASVSADKVV,0.703 ± 0.025
10,CCLGCFLKHGIV,0.652 ± 0.035
11,CCSIVRSGAGDK,0.748 ± 0.012
12,CCSSCFVLSKAA,0.6463 ± 0.0031
13,CDCDESYFNPLG,0.666 ± 0.037
14,CDLISNFFLIGV,0.633 ± 0.03
15,CDSVATFCLRLF,0.6234 ± 0.0031
16,CEHGGWYVGFCS,0.7 ± 0.008
17,CERIGIRHLIKW,0.657 ± 0.036
18,CFCSWFWDLVLC,0.628 ± 0.0076
19,CFDALLPEELSS,0.696 ± 0.044
20,CFLPLFFFRFVE,0.609 ± 0.027
21,CFVDHCPIAHIY,0.608 ± 0.022
22,CGCCTSSPFVSQ,0.687 ± 0.061
23,CGGDGRTPTTHT,0.665 ± 0.019
24,CGGGCVVGAGWG,0.727 ± 0.044
25,CGLMIFSRSYRF,0.704 ± 0.033
26,CGMIQDKCEGEI,0.738 ± 0.049

row,Sequence,protein stability index
1,CGRITADKRILL,0.65 ± 0.098
2,CGRRGYIVRTFL,0.658 ± 0.071
3,CGSWVAVESLEL,0.679 ± 0.042
4,CGVGEGGLLGWL,0.745 ± 0.072
5,CGVGWGMVEGWR,0.691 ± 0.016
6,CGWFSVGLMVGG,0.485 ± 0.057
7,CHSLEDRPDDPC,0.758 ± 0.1
8,CIGVGTVRGSHG,0.673 ± 0.067
9,CIKQTNNQNKSN,0.697 ± 0.045
10,CILYTGYDLGNV,0.7 ± 0.021
11,CIPVTGLHFRVI,0.6136 ± 0.0035
12,CITKERVMVKFV,0.538 ± 0.012
13,CITRIGSYGEET,0.679 ± 0.057
14,CLCHAPLPLAAP,0.642 ± 0.013
15,CLFLRLSPSCSR,0.686 ± 0.04
16,CLGCAFPPHSLY,0.646 ± 0.046
17,CLGGPAAWPLFS,0.6778 ± 0.0025
18,CLLAPSSLASPI,0.66 ± 0.043
19,CLLFSRQLLESP,0.678 ± 0.077
20,CLLPFCFLSHIF,0.585 ± 0.04
21,CLLRPTPRPATP,0.779 ± 0.036
22,CLLYPPYHFYIH,0.567 ± 0.0066
23,CLMGTIETRLRC,0.637 ± 0.049
24,CLPQCLNPDFAE,0.645 ± 0.0066
25,CLRGGGAGDGAS,0.673 ± 0.048
26,CLRGTYPRLPLT,0.6838 ± 0.0035

row,Sequence,protein stability index
1,CLRRRSLSPLFI,0.7252 ± 0.0057
2,CLSFCFGISVFD,0.616 ± 0.017
3,CLSSVSLSNVSV,0.669 ± 0.068
4,CLVKSNVCVAPG,0.643 ± 0.12
5,CMRVHPGHPFPY,0.633 ± 0.06
6,CNEKVNRNGYKR,0.69 ± 0.064
7,CNIASTLEKTCP,0.7043 ± 0.0062
8,CNNRNKRMRKYI,0.669 ± 0.031
9,CPFLFSLFPHSF,0.6646 ± 0.0033
10,CPFTDPRRQQSV,0.646 ± 0.028
11,CPLGHLCVIRFG,0.59 ± 0.012
12,CPPSPSPPLPPL,0.712 ± 0.0085
13,CPRLWGGRLLMR,0.5867 ± 0.003
14,CPRWHDCLACIE,0.665 ± 0.011
15,CPSLSALNHPLV,0.701 ± 0.021
16,CPYIFLLSLGNT,0.651 ± 0.017
17,CQLCTDPLIDLL,0.667 ± 0.03
18,CQNLVCRCCLWI,0.6423 ± 0.0059
19,CQRHGTKIHRRR,0.736 ± 0.053
20,CQTRTKAKKTQV,0.727 ± 0.0083
21,CQVDGTMLCSEC,0.652 ± 0.02
22,CQVVALYCFSLL,0.62 ± 0.068
23,CRAAAGMVVWHG,0.6835 ± 0.0056
24,CRATYVGTGGRG,0.656 ± 0.016
25,CRFRFGFNFSSF,0.581 ± 0.075
26,CRGVGGRTVING,0.692 ± 0.032

row,Sequence,protein stability index
1,CRNSTKFAVLRE,0.654 ± 0.012
2,CRPVHVNLPFYF,0.5884 ± 0.00092
3,CRRCRIHSGIYD,0.672 ± 0.034
4,CRRLLIHTALRV,0.582 ± 0.015
5,CRRPPWRFSFPF,0.767 ± 0.021
6,CRSGSVGGIRGR,0.679 ± 0.011
7,CSFHPSSVSLYS,0.555 ± 0.027
8,CSFSRRLCHRPT,0.701 ± 0.013
9,CSHSLFASCSSL,0.695 ± 0.021
10,CSIVGLGACVSW,0.669 ± 0.0083
11,CSLCILSWTFPS,0.6464 ± 0.0026
12,CSLSRFLGCWGF,0.668 ± 0.062
13,CSMSGPLIIIAR,0.58339 ± 0.00021
14,CSPSDCGWQLVL,0.604 ± 0.09
15,CSRFPGSVRVVS,0.615 ± 0.012
16,CSRSPASAPRPH,0.688 ± 0.018
17,CSSLPPFPALPR,0.701 ± 0.026
18,CSSTTFADRRFM,0.753 ± 0.062
19,CTAPIASWKRVL,0.694 ± 0.029
20,CTCLHSSGVRHT,0.692 ± 0.047
21,CTSSVRARRRFR,0.698 ± 0.043
22,CVFSCLLATVFL,0.533 ± 0.026
23,CVGARLYMVRDR,0.724 ± 0.046
24,CVGFCLGKCTMS,0.732 ± 0.014
25,CVIESIEQCLSR,0.716 ± 0.045
